From the supplement of paper PMC7125110
± gives the standard error. For some assays here: Fewer inactive variants are shown than the library holds.

B1: glmS ribozyme (parent)
chain: AUAAAAGCGCCAGAACUACAGAAAUGUAGUUGACGAGGAGGAGGUUUAUCGAAUUUUCGGCGGAUGCCUCCAAA

What was measured:
Conditions in all cases: with glucosamine-6-phosphate
glucosamine-6-phosphate [1] = variants of: B1; assay: kcat; higher = faster cleavage; RNA array
How it was run: (§1)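 Barcoded glmS ribozyme variants on sequenced MiSeq chips were transcribed in situ by E. coli RNA polymerase and tracked through a hybridised Cy3 probe at 37 °C. Glucosamine-6-phosphate (40 μM to 10 mM) in HEPES/KCl/Mg(OAc)2 buffer was flowed in, and tiles were imaged over ~14 h. Signals were normalised to baseline and to non-cleaving reference variants; per-tile medians were fit to one- or two-exponential decays to give kobs. kcat and KM came from weighted Michaelis–Menten fits across concentrations.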

glucosamine-6-phosphate [2] = variants of: B1; assay: KM; higher = weaker cofactor use; RNA array
How it was run: as §1

glucosamine-6-phosphate [3] = variants of: B1; assay: self-cleavage kobs at 640 uM GlcN6P; higher = faster cleavage; RNA array
How it was run: as §1

glucosamine-6-phosphate [4] = variants of: B1; assay: self-cleavage kobs at 2500 uM GlcN6P; higher = faster cleavage; RNA array
How it was run: as §1

glucosamine-6-phosphate [5] = variants of: B1; assay: self-cleavage kobs at 10000 uM GlcN6P; higher = faster cleavage; RNA array
How it was run: as §1

glucosamine-6-phosphate [6] = variants of: B1; assay: self-cleavage kobs at 40 uM GlcN6P; higher = faster cleavage; RNA array
How it was run: as §1

glucosamine-6-phosphate [7] = variants of: B1; assay: self-cleavage kobs at 160 uM GlcN6P; higher = faster cleavage; RNA array
How it was run: as §1

AUAAAAGCGCCAGAACUACAGAAAUGUAGUUUACGAGGAAGAGGUUUAUCGAAUUUUCGGCGGAUGCCUCCAAA [G32U G40A]
kcat (glucosamine-6-phosphate [1]): 0.000344 ± 5e-05 s⁻¹
KM (glucosamine-6-phosphate [2]): 3.45 ± 0.95 mM
self-cleavage kobs at 640 uM GlcN6P (glucosamine-6-phosphate [3]): 6.33e-05 ± 6.7e-06 s⁻¹
self-cleavage kobs at 2500 uM GlcN6P (glucosamine-6-phosphate [4]): 0.000131 ± 1e-05 s⁻¹
self-cleavage kobs at 10000 uM GlcN6P (glucosamine-6-phosphate [5]): 0.000267 ± 1.9e-05 s⁻¹

AUAAAAGCGCCAGAACUACAGAAAUGUAGUUUACGAGGAGGAGGUUUAUCGAAUUCUCGGCGGAUGCCUCCAAA [G32U U56C]
kcat (glucosamine-6-phosphate [1]): 0.000177 ± 3.9e-05 s⁻¹
KM (glucosamine-6-phosphate [2]): 2.99 ± 1.3 mM
self-cleavage kobs at 40 uM GlcN6P (glucosamine-6-phosphate [6]): < 1e-05 s⁻¹
self-cleavage kobs at 640 uM GlcN6P (glucosamine-6-phosphate [3]): 2.54e-05 ± 8.9e-06 s⁻¹
self-cleavage kobs at 2500 uM GlcN6P (glucosamine-6-phosphate [4]): 0.000105 ± 2.1e-05 s⁻¹
self-cleavage kobs at 10000 uM GlcN6P (glucosamine-6-phosphate [5]): 0.000127 ± 2.4e-05 s⁻¹

AUAAAAGCGCCAGAACUACAGAAAUGUAGUUUACGAGGAGGAGGUUUAUCGACUUUUCGGCGGAUGCCUCCAAA [G32U A53C]
kcat (glucosamine-6-phosphate [1]): 0.000282 ± 0.00012 s⁻¹
self-cleavage kobs at 640 uM GlcN6P (glucosamine-6-phosphate [3]): 0.000104 ± 2.3e-05 s⁻¹
self-cleavage kobs at 2500 uM GlcN6P (glucosamine-6-phosphate [4]): 0.000105 ± 2.7e-05 s⁻¹
self-cleavage kobs at 10000 uM GlcN6P (glucosamine-6-phosphate [5]): 0.000275 ± 4.6e-05 s⁻¹

AUAAAAGCGCCAGAACUACAGAAAUGUAGUUUACGAGGAGGAGGUUUAUCGAUUUUUCGGCGGAUGCCUCCAAA [G32U A53U]
kcat (glucosamine-6-phosphate [1]): 0.000907 ± 0.00012 s⁻¹
KM (glucosamine-6-phosphate [2]): 4.58 ± 0.95 mM
self-cleavage kobs at 160 uM GlcN6P (glucosamine-6-phosphate [7]): 1.91e-05 ± 5.9e-06 s⁻¹
self-cleavage kobs at 640 uM GlcN6P (glucosamine-6-phosphate [3]): 0.000111 ± 6.5e-06 s⁻¹
self-cleavage kobs at 2500 uM GlcN6P (glucosamine-6-phosphate [4]): 0.000361 ± 2.5e-05 s⁻¹
self-cleavage kobs at 10000 uM GlcN6P (glucosamine-6-phosphate [5]): 0.000603 ± 3.5e-05 s⁻¹

AUAAAAGCGCCAGAACUACAGAAAUGUAGUUUACGAGGAGGAGGUUUAUCGAGUUUUCGGCGGAUGCCUCCAAA [G32U A53G]
kcat (glucosamine-6-phosphate [1]): 0.00107 ± 0.00015 s⁻¹
KM (glucosamine-6-phosphate [2]): 3.39 ± 0.75 mM
self-cleavage kobs at 160 uM GlcN6P (glucosamine-6-phosphate [7]): 5.42e-05 ± 9e-06 s⁻¹
self-cleavage kobs at 640 uM GlcN6P (glucosamine-6-phosphate [3]): 0.000174 ± 1.8e-05 s⁻¹
self-cleavage kobs at 2500 uM GlcN6P (glucosamine-6-phosphate [4]): 0.000375 ± 5.5e-05 s⁻¹
self-cleavage kobs at 10000 uM GlcN6P (glucosamine-6-phosphate [5]): 0.000847 ± 7.5e-05 s⁻¹

AUAAAAGCGCCAGAACUACAGAAAUGUAGUUUACGAGGAGGAGGUUUAUCGAAUUUUCGGCGGAUGCCCCCAAA [G32U U69C]
kcat (glucosamine-6-phosphate [1]): 0.00053 ± 3.6e-05 s⁻¹
KM (glucosamine-6-phosphate [2]): 3.47 ± 0.47 mM
self-cleavage kobs at 640 uM GlcN6P (glucosamine-6-phosphate [3]): 7.6e-05 ± 2.3e-05 s⁻¹
self-cleavage kobs at 2500 uM GlcN6P (glucosamine-6-phosphate [4]): 0.000232 ± 4.8e-05 s⁻¹
self-cleavage kobs at 10000 uM GlcN6P (glucosamine-6-phosphate [5]): 0.000391 ± 5.4e-05 s⁻¹

AUAAAAGCGCCAGAACUACAGAAAUGUAGUUUACGAGGAGGGGGUUUAUCGAAUUUUCGGCGGAUGCCUCCAAA [G32U A42G]
kcat (glucosamine-6-phosphate [1]): 0.00137 ± 0.00021 s⁻¹
KM (glucosamine-6-phosphate [2]): 3.79 ± 0.81 mM
self-cleavage kobs at 160 uM GlcN6P (glucosamine-6-phosphate [7]): 4.61e-05 ± 1.7e-05 s⁻¹
self-cleavage kobs at 640 uM GlcN6P (glucosamine-6-phosphate [3]): 0.000218 ± 4e-05 s⁻¹
self-cleavage kobs at 2500 uM GlcN6P (glucosamine-6-phosphate [4]): 0.000528 ± 0.00013 s⁻¹
self-cleavage kobs at 10000 uM GlcN6P (glucosamine-6-phosphate [5]): 0.000988 ± 0.00023 s⁻¹

AUAAAAGCGCCAGAACUACAGAAAUGUAGUUGCCGCGGAGGAAGUUUAUCGUAUUUUCGGCGGAUGCCUCCAAA [A33C A36C G43A A52U]
kcat (glucosamine-6-phosphate [1]): < 1e-05 s⁻¹

AUAAAAGCGCCAGAACUACAGAAAUGUAGUUUACGAGGAGGAGGUUUAUCGAACUUUCGGCGGAUGCCUCCAAA [G32U U54C]
kcat (glucosamine-6-phosphate [1]): 0.000958 ± 0.00028 s⁻¹
KM (glucosamine-6-phosphate [2]): 5.3 ± 2.3 mM
self-cleavage kobs at 640 uM GlcN6P (glucosamine-6-phosphate [3]): 0.000126 ± 1.5e-05 s⁻¹
self-cleavage kobs at 2500 uM GlcN6P (glucosamine-6-phosphate [4]): 0.000272 ± 3.3e-05 s⁻¹
self-cleavage kobs at 10000 uM GlcN6P (glucosamine-6-phosphate [5]): 0.000665 ± 8.6e-05 s⁻¹

AUAAAAGCGCCAGAACUACAGAAAUGUAGUUUACGAGGAGGAGGUUUAUGGAAUUUUCGGCGGAUGCCUCGAAA [G32U C50G C71G]
kcat (glucosamine-6-phosphate [1]): 0.000195 ± 2.4e-05 s⁻¹
self-cleavage kobs at 40 uM GlcN6P (glucosamine-6-phosphate [6]): 0.000189 ± 5.1e-05 s⁻¹
self-cleavage kobs at 640 uM GlcN6P (glucosamine-6-phosphate [3]): 0.000151 ± 6.3e-05 s⁻¹
self-cleavage kobs at 2500 uM GlcN6P (glucosamine-6-phosphate [4]): 0.000194 ± 6.4e-05 s⁻¹
self-cleavage kobs at 10000 uM GlcN6P (glucosamine-6-phosphate [5]): 0.000231 ± 5.8e-05 s⁻¹

AUAAAAGCGCCAGAACUACAGAAAUGUAGUUGCCGAGGCGGAGGUUUAUCGAAUUUUCGGCGGAUGCCUCCAAA [A33C A39C]
kcat (glucosamine-6-phosphate [1]): 3.87e-05 ± 3.3e-06 s⁻¹
self-cleavage kobs at 2500 uM GlcN6P (glucosamine-6-phosphate [4]): 3.92e-05 ± 8e-06 s⁻¹
self-cleavage kobs at 10000 uM GlcN6P (glucosamine-6-phosphate [5]): 3.54e-05 ± 7.3e-06 s⁻¹

AUAAAAGCGCCAGAACUACAGAAAUGUAGUUUACGAGGAGGAGGUUUAUCGAAUUUUCGGCGGGUGCCUCCAAA [G32U A64G]
kcat (glucosamine-6-phosphate [1]): 0.000904 ± 0.0002 s⁻¹
KM (glucosamine-6-phosphate [2]): 3.13 ± 1.1 mM
self-cleavage kobs at 160 uM GlcN6P (glucosamine-6-phosphate [7]): 4.19e-05 ± 1.1e-05 s⁻¹
self-cleavage kobs at 640 uM GlcN6P (glucosamine-6-phosphate [3]): 0.000178 ± 2.3e-05 s⁻¹
self-cleavage kobs at 2500 uM GlcN6P (glucosamine-6-phosphate [4]): 0.00034 ± 4.6e-05 s⁻¹
self-cleavage kobs at 10000 uM GlcN6P (glucosamine-6-phosphate [5]): 0.000774 ± 0.00011 s⁻¹

AUAAAAGCGCCAGAACUACAGAAAUGUAGUUGCCGAGGAGGAGGUUUAUCGAAUUUUCGGCGGAUGCCUCCAAA [A33C]
kcat (glucosamine-6-phosphate [1]): 0.000505 ± 2.5e-05 s⁻¹
KM (glucosamine-6-phosphate [2]): 2.8 ± 0.24 mM
self-cleavage kobs at 40 uM GlcN6P (glucosamine-6-phosphate [6]): 1.4e-05 ± 2.6e-06 s⁻¹
self-cleavage kobs at 160 uM GlcN6P (glucosamine-6-phosphate [7]): 2.95e-05 ± 1.7e-06 s⁻¹
self-cleavage kobs at 640 uM GlcN6P (glucosamine-6-phosphate [3]): 9.27e-05 ± 1.9e-06 s⁻¹
self-cleavage kobs at 2500 uM GlcN6P (glucosamine-6-phosphate [4]): 0.000541 ± 0.00018 s⁻¹
self-cleavage kobs at 10000 uM GlcN6P (glucosamine-6-phosphate [5]): 0.000395 ± 6.8e-06 s⁻¹

AUAAAAGCGCCAGAACUACAGAAAUGUAGUUUACGAGGAGGAGGUUUAUCGAAUGAUCGGCGGAUGCCUCCAAA [G32U U55G U56A]
kcat (glucosamine-6-phosphate [1]): 0.000802 ± 4.9e-05 s⁻¹
KM (glucosamine-6-phosphate [2]): 5.53 ± 0.45 mM
self-cleavage kobs at 640 uM GlcN6P (glucosamine-6-phosphate [3]): 8.29e-05 ± 1.1e-05 s⁻¹
self-cleavage kobs at 2500 uM GlcN6P (glucosamine-6-phosphate [4]): 0.000255 ± 4.3e-05 s⁻¹
self-cleavage kobs at 10000 uM GlcN6P (glucosamine-6-phosphate [5]): 0.000509 ± 0.00011 s⁻¹

AUAAAAGCGCCAGAACUACAGAAAUGUAGUUUACGAGGAGGAGGUUUAUCGAAUUUUCGGCGGAUGCCUGCAAA [G32U C70G]
kcat (glucosamine-6-phosphate [1]): 7.04e-05 ± 1e-05 s⁻¹
self-cleavage kobs at 640 uM GlcN6P (glucosamine-6-phosphate [3]): 8.68e-05 ± 1.2e-05 s⁻¹
self-cleavage kobs at 2500 uM GlcN6P (glucosamine-6-phosphate [4]): 5.3e-05 ± 5.7e-06 s⁻¹
self-cleavage kobs at 10000 uM GlcN6P (glucosamine-6-phosphate [5]): 7.56e-05 ± 4.5e-06 s⁻¹
